This is an account of results in US20030203372A1, “Analysis method” (priority 2000, published 2003).

This assay deals with HIF1α (hypoxia-inducible factor 1 alpha) (UniProt Q16665). Description: cell-based or functional assay.

The substance “EGL nine (C.elegans) homolog 3 (EGLN3), full length (from UniProt Q9H6Z9 1-239)” had an HIF1α activity measured in Luciferase units from the HRE-Luc reporter, 293T cells in normoxia, co-transfected with CMV-HIF and CMV-SVFL1 (CMV-HIF with HRE-Luc alone: 20953 Luciferase units) (Luciferase units) of 918.
